Target: LgBiT (large BiT fragment of split NanoLuc) secreted from GCN4-LgBiT receiver cells
Experiment: split reporter

fold signal turn-on (co-culture against cells cultured individually): > 130 fold
Substance: scFv-SmBiT fusion secreted by sender^high cells (anti-GCN4 scFv, HA tag, G4Sx4 linker, high-affinity SmBiT peptide)

— paper PMC12698293
